Data as given in patent US20150329642A1.
One block for each substance: values may come before it.

Key:
[1] = biological target: cMetECDHis (human) (UniProt P08581); experiment: cross-block ELISA; competitor 068
[2] = biological target: cMetECDHis (human) (UniProt P08581); experiment: cross-block ELISA; competitor 062
[3] = biological target: cMetECDHis (human) (UniProt P08581); experiment: cross-block ELISA; competitor 035
[4] = biological target: cMetECDHis (human) (UniProt P08581); experiment: cross-block ELISA; competitor 008
[5] = biological target: cMetECDHis (human) (UniProt P08581); experiment: cross-block ELISA; competitor 058
[6] = biological target: cMetECDHis (human) (UniProt P08581); experiment: cross-block ELISA; competitor 005
[7] = biological target: cMetECDHis (human) (UniProt P08581); experiment: cross-block ELISA; competitor 022
[8] = biological target: cMetECDHis (human) (UniProt P08581); experiment: cross-block ELISA; competitor G11-HZ
[9] = biological target: cMetECDHis (human) (UniProt P08581); experiment: BLI (Octet); antibody captured, cMetECDHis in solution
[10] = biological target: cMetSEMA-567His8 (human) (UniProt P08581); experiment: TR-FRET; displacement of AlexaFluor-647-HGF from cMetSEMA-567His8
[11] = biological target: cMetECDHis (human) (UniProt P08581); experiment: cross-block ELISA; competitor 064
[12] = biological target: cMetECDHis (human) (UniProt P08581); experiment: cross-block ELISA; competitor 069
[13] = biological target: cMetECDHis (human) (UniProt P08581); experiment: cross-block ELISA; competitor 045
[14] = biological target: cMetECDHis (human) (UniProt P08581); experiment: cross-block ELISA; competitor 024
[15] = biological target: cMetECDHis (human) (UniProt P08581); experiment: cross-block ELISA; competitor 5D5
[16] = biological target: recombinant human c-Met extracellular domain (R&D systems) (human) (UniProt P08581); experiment: competition ELISA on coated recombinant c-Met extracellular domain; blocked ligand Europium-conjugated HGF; column headed EC50 on the sheet, called IC50 in paragraph 270; upper panel
[17] = biological target: human c-Met, membrane-bound on cells (human) (UniProt P08581); experiment: flow cytometry on A431 cells (PE goat anti-human IgG); top panel
[18] = biological target: cMetECDHis (human) (UniProt P08581); experiment: cross-block ELISA; competitor 006
[19] = biological target: recombinant human c-Met extracellular domain (R&D systems) (human) (UniProt P08581); experiment: competition ELISA, residual Europium-HGF signal at 615 nm at the lower plateau of the fit; sheet prints no competing mAb ~66000, no HGF-Europium ~600; upper panel
[20] = biological target: cMetECDHis (human) (UniProt P08581); experiment: cross-block ELISA; competitor 181
[21] = biological target: cMetECDHis (human) (UniProt P08581); experiment: cross-block ELISA; competitor 098
[22] = biological target: cMetECDHis (human) (UniProt P08581); experiment: cross-block ELISA; competitor 101

- residual binding, % of no competitor [1]: 97.8%
- residual binding, % of no competitor [2]: 97.6%
- residual binding, % of no competitor [3]: 98.1%
- residual binding, % of no competitor [4]: 90.2%
- residual binding, % of no competitor [5]: 6.6%
- residual binding, % of no competitor [6]: 42.3%
- residual binding, % of no competitor [7]: 12.4%
- residual binding, % of no competitor [8]: 97.3%
- Kd [9]: 5.86 nM
- koff [9]: 0.00125 s⁻¹
- kon [9]: 214000 M⁻¹ s⁻¹
- % inhibition [10]: 95%
- IC50 [10]: 0.2 µg/mL
- residual binding, % of no competitor [11]: 97.1%
- residual binding, % of no competitor [12]: 99.6%
- residual binding, % of no competitor [13]: 83.9%
- residual binding, % of no competitor [14]: 94.2%
- residual binding, % of no competitor [15]: 4.1%
- IC50 [16]: 0.0244 µg/mL
- EC50 [17]: 0.531 nM
- residual binding, % of no competitor [18]: 58.8%
- Bottom [19]: 6350 RFU
- residual binding, % of no competitor [20]: 103%
- residual binding, % of no competitor [21]: 97.6%
- residual binding, % of no competitor [22]: 97.9%
Substance: IgG1-5D5 (antibody)

- EC50 [17]: 0.966 nM
Substance: IgG4-5D5 (antibody)
